Experimental data published in patent US20240254246A1 (PROMETHEUS BIOSCIENCES, published 2024).

T1: CDH13 (human, UniProt P55290 139-693)
T1 construct: whole, on cells; also called hit #16
T1 sequence (looked up): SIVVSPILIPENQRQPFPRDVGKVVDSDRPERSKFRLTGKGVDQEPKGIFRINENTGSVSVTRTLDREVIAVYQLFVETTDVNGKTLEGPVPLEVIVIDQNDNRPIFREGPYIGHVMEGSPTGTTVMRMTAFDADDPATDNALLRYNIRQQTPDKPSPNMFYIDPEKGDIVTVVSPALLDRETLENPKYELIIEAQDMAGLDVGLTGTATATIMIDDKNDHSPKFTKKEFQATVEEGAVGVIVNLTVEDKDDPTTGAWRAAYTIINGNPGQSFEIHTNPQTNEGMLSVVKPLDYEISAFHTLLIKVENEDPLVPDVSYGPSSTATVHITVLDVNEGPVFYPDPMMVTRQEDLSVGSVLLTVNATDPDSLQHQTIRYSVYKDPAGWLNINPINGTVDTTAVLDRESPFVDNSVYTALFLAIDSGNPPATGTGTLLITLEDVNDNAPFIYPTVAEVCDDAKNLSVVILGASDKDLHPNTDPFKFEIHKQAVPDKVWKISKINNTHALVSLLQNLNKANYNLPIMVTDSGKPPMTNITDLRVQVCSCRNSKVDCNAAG

T2: human CD30L expressed on cells (human, UniProt P32971 1-234)
T2 sequence: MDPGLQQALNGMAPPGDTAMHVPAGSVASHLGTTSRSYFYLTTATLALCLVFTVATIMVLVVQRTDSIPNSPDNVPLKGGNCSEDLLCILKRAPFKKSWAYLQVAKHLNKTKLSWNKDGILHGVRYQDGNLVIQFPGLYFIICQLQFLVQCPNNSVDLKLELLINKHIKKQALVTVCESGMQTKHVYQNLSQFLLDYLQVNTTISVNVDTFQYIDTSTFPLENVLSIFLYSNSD

T3: cynomolgus CD30L expressed on cells (cynomolgus, UniProt A0A7N9CVX7 1-234)
T3 sequence: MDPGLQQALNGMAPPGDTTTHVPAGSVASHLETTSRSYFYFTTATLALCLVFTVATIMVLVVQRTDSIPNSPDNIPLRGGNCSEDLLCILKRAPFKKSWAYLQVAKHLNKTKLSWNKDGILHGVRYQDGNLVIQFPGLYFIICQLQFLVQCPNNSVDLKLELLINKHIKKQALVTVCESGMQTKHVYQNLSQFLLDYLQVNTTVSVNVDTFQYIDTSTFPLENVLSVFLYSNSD

T4: human CD30L expressed on B16 cells (human, UniProt P32971 1-234)
T4 sequence (looked up): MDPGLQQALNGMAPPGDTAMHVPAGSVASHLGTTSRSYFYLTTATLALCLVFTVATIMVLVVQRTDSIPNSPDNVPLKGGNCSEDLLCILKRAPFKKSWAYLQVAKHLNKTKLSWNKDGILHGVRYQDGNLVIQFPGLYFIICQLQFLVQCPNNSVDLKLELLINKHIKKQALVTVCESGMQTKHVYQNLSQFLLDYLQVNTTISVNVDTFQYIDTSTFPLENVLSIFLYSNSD

T5: recombinant human CD30L (human, UniProt P32971 63-234)
T5 construct: Purified recombinant protein of ELISA, BLI, Carterra and KinExA; also called rhCD30L; huCD30L
T5 sequence (looked up): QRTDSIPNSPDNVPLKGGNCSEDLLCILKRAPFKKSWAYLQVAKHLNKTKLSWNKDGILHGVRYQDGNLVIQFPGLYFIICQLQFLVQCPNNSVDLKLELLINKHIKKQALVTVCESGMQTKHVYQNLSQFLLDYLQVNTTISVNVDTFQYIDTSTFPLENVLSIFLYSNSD

T6: recombinant mouse CD30L (mouse, UniProt P32972 68-239)
T6 construct: Purified recombinant protein; also called rmCD30L
T6 sequence (looked up): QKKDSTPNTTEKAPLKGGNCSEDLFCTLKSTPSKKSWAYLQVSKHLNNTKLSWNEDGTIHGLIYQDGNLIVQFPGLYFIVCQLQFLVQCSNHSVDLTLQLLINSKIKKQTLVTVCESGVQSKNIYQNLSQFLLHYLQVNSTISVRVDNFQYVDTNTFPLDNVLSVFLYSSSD

T7: recombinant cynomolgus CD30L (cynomolgus, UniProt A0A7N9CVX7 63-234)
T7 construct: Purified recombinant protein; also called rcyCD30L; cyno CD30L
T7 sequence: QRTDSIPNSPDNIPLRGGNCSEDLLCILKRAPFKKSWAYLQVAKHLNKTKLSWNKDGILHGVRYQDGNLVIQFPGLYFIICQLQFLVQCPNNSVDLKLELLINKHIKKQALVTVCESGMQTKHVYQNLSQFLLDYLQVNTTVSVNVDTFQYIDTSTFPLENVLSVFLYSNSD

T8: recombinant cynomolgus CD30L protein (cynomolgus, UniProt A0A7N9CVX7 63-234)
T8 construct: Recombinant protein used in ELISA; also called cyCD30L
T8 sequence: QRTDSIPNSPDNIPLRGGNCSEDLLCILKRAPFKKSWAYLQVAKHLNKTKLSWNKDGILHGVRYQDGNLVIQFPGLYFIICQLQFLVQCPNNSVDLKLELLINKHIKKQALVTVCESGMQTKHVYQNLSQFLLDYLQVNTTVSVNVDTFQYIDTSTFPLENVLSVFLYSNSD

T9: human CD30L expressed on cells (human, UniProt P32971 1-234)
T9 construct: whole, on cells; also called huCD30L; B16-huCD30L cells
T9 sequence (looked up): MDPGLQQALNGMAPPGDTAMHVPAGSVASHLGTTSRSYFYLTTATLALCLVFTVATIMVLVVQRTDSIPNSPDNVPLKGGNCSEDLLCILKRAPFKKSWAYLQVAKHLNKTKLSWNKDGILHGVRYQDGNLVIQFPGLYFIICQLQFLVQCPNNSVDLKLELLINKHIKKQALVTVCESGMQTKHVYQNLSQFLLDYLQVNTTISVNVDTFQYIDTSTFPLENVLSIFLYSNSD

T10: recombinant human CD30L protein (human, UniProt P32971 63-234)
T10 construct: Recombinant protein used in ELISA; also called huCD30L
T10 sequence (looked up): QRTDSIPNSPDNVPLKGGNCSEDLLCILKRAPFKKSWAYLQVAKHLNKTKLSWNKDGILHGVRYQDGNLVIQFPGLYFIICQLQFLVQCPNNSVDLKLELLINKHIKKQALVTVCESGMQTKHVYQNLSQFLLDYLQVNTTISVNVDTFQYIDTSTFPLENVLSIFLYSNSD

T11: cynomolgus CD30L expressed on HEK293 cells (cynomolgus, UniProt A0A7N9CVX7 1-234)
T11 sequence: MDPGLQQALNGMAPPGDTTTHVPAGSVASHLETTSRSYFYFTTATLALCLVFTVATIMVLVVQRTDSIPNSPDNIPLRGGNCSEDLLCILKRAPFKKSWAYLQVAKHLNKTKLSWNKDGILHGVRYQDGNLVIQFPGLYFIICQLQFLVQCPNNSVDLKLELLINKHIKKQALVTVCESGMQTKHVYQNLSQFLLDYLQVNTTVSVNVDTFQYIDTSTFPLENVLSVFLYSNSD


Assays:
CDH13 = biological target: T1, CDH13; assay: cell microarray, library and confirmation screens
[1] = biological target: T2, human CD30L expressed on cells; assay: cell-based or functional assay
[2] = biological target: T3, cynomolgus CD30L expressed on cells; assay: cell-based or functional assay
[3] = biological target: T4, human CD30L expressed on B16 cells; assay: cell-based or functional assay
recombinant human CD30L [4] = biological target: T5, recombinant human CD30L; assay: BLI, CD30 association to CD30L held by captured IgG; competitor rhCD30
Procedure: Briefly, individual anti-human biosensors were loaded with purified IgG (normalized to 10 μg/mL) and a baseline was measured for each biosensor. Biosensors were saturated with biotin and with polyclonal hulgG and a baseline was measured. Loaded biosensors were then allowed to bind CD30L and the association rate was measured for the binding. Biosensors were moved to buffer wells to measure the dissociation rate.

recombinant mouse CD30L = biological target: T6, recombinant mouse CD30L; assay: ELISA on recombinant protein
recombinant human CD30L [5] = biological target: T5, recombinant human CD30L; assay: ELISA on recombinant protein
[6] = biological target: T7, recombinant cynomolgus CD30L; assay: ELISA on recombinant protein
[7] = biological target: T4, human CD30L expressed on B16 cells; assay: flow cytometry on B16 cells expressing hCD30L
recombinant human CD30L [8] = biological target: T5, recombinant human CD30L; assay: ELISA, binding to rhCD30L (OD 450 nm)
[9] = biological target: T4, human CD30L expressed on B16 cells; assay: flow cytometry, binding to B16 cells expressing human CD30L (MFI)
recombinant human CD30L [10] = biological target: T5, recombinant human CD30L; assay: recombinant blocking ELISA; competitor CD30
[11] = biological target: T8, recombinant cynomolgus CD30L protein; assay: ELISA, 1/500 dil
[12] = biological target: T9, human CD30L expressed on cells; assay: flow cytometry, PMA/ionomycin-stimulated primary lymphocytes, Patient 1 (CD, #04-021)
Source text: (§1) Peripheral blood mononuclear cells (PBMCs) were isolated from freshly collected whole blood from Ulcerative Colitis (UC) and Crohn's Disease (CD) patients, by conventional density gradient centrifugation. To induce CD30L expression on primary lymphocytes, the isolated cells were stimulated overnight with Phorbol 12-myristate 13-acetate (PMA) and ionomycin. […] After washing to remove unbound antibodies, the cells were fixed in a paraformaldehyde solution and analyzed by flow cytometry to quantify cell surface antibody binding.

[13] = biological target: T10, recombinant human CD30L protein; assay: ELISA, CD30 competitor, 1/1000 dil
[14] = biological target: T9, human CD30L expressed on cells; assay: flow cytometry, PMA/ionomycin-stimulated primary lymphocytes, Patient 3 (UC, #02-180)
Source text: as §1

[15] = biological target: T9, human CD30L expressed on cells; assay: flow cytometry, PMA/ionomycin-stimulated primary lymphocytes, Patient 4 (CD, #01-051)
Source text: as §1

[16] = biological target: T10, recombinant human CD30L protein; assay: ELISA, CD30 competitor, undil
[17] = biological target: T10, recombinant human CD30L protein; assay: ELISA, CD30 competitor, 1/100 dil
[18] = biological target: T8, recombinant cynomolgus CD30L protein; assay: ELISA, 1/50 dil
[19] = biological target: T9, human CD30L expressed on cells; assay: flow cytometry, PMA/ionomycin-stimulated primary lymphocytes, Patient 2 (UC, #03-041)
Source text: as §1

[20] = biological target: T8, recombinant cynomolgus CD30L protein; assay: ELISA, 1/5000 dil
[21] = biological target: T10, recombinant human CD30L protein; assay: ELISA, CD30 competitor, 1/10 dil
[22] = biological target: T11, cynomolgus CD30L expressed on HEK293 …; assay: cell-based or functional assay
[23] = biological target: T9, human CD30L expressed on cells; assay: cell-based or functional assay; remark: listed apart in the source
[24] = biological target: T9, human CD30L expressed on cells; assay: flow cytometry, blocking of huCD30 binding to B16-huCD30L cells
[25] = biological target: T9, human CD30L expressed on cells; assay: flow cytometry, B16-huCD30L cells
Procedure: Anti-CD30L antibody binding to a CD30L target was determined by flow cytometry, using B16 cells transfected to express human CD30L (compared to non-transfected B16), and using HEK293 cells transfected to express cynomolgus CD30L (compared to non-transfected HEK293). […] Cell surface bound antibodies were detected using a fluorescently labeled anti-human-IgG or anti-mouse IgG, depending on the Fc portion of the antibodies. After incubation with the secondary antibody, the cells were washed, fixed in a paraformaldehyde solution, and analyzed by flow cytometry to detect antibody binding.

Elisa Binding (OD) [11]	EC50 [12]	% inhibition [13]	EC50 [14]	EC50 [15]	% inhibition [16]	% inhibition [17]	Elisa Binding (OD) [18]	EC50 [19]	Elisa Binding (OD) [20]	% inhibition [21]	Binder	other results
											anti-CD30L antibody clone 2 with IgG1 constant region SEQ ID NO: 502 (antibody, V domains shown, copies: 2 + 2) VH: EVQLVESGGGLVQPGRSLRLSCAASGFNFDDYAMHWVRQAPGKGLEWVSGISWRSGNIGYAGSVKGRFTISRDNAKNSLYLQMNSLRPEDSALYYCAKDKGIGFNWNYEGFDYWGQGTLVTVSS VL: DIQMTQSPSSLSASVGDRVTITCRASQGISNHLAWFQQKPGKAPKSLIYAASSLQSGVPSKFSGSGSGTDFTLTISSLQPEDFATYYCQQYVTYPLTFGGGTKVEIK	binding result (CDH13): no binding (tested: 5 µg/mL); IL-8 release dual cell assay, fold better IC50 than reference 1 (ref1) anti-CD30L [1]: 2 fold; IL-8 release dual cell assay, fold better IC50 than reference 1 (ref1) anti-CD30L [2]: 2.6 fold
											anti-CD30L antibody clone 80 (antibody, V domains shown, purified recombinant IgG (held by anti-human biosensors); mouse strain #1) VH: EVQLVESGGGLVQPGGSLRLSCEVSGFTFSSYDMHWVRQVTGTGLEWVSSIGIGGDTYYPGSVKGRFTISRENAKNSLYLQMNSLRGGDTGVYYCARGEWDLLWYFMDVWGKGTTVTVSS VL: DIQMTQSPSSLSASIGDRVTITCRASQGISSWLAWYQQKPGKAPKLLIYAASSLQSGVPSRFSGSGSGTDFTLTISSLQPEDFATYYCQQANSFPLTFGGGTKVEIK	IC50 (read off the curve), IL-8 release, dual cell assay (B16-huCD30L cells + K299 cells) [3]: ~2 nM; rhCD30L:rhCD30 Blocking (recombinant human CD30L [4]): 0.0635; rmCD30L (+) ELISA (recombinant mouse CD30L): 0.048; rhCD30L (+) ELISA (recombinant human CD30L [5]): 0.941; rcyCD30L (+) ELISA [6]: 0.475; hCD30L B16 (+) FLOW [7]: 8.3e+06; EC50 (read off the curve) (recombinant human CD30L [8]): ~0.2 nM; EC50 (read off the curve) [9]: ~1 nM; IC50 (recombinant human CD30L [10]): 2.74 nM
3.18 OD	2.4 nM	1%	1.71 nM	1.72 nM	98%	45%	3.76 OD	1.55 nM	1.23 OD	98%	Clone 2 (antibody, V domains shown, also called CLONE_2 (parental)) VH: EVQLVESGGGLVQPGRSLRLSCAASGFNFDDYAMHWVRQAPGKGLEWVSGISWRSGNIGYAGSVKGRFTISRDNAKNSLYLQMNSLRPEDSALYYCAKDKGIGFNWNYEGFDYWGQGTLVTVSS VL: DIQMTQSPSSLSASVGDRVTITCRASQGISNHLAWFQQKPGKAPKSLIYAASSLQSGVPSKFSGSGSGTDFTLTISSLQPEDFATYYCQQYVTYPLTFGGGTKVEIK	
2.87 OD	7.45 nM	0%	5.57 nM	4.53 nM	98%	34%	2.83 OD	5.43 nM	1.16 OD	98%	Clone 1 (antibody, V domains shown, also called CLONE_1 (parental)) VH: QVQLQESGPGLVKPSETLSLTCTVSGGSISGYYWSWIRQPPVKGLEWIGYIFYSGYTKYNPSLKSRVTISVDTSKNQFSLKLSSVTAADTAVYYCARDRWDFDYWGQGALVTVSS VL: AIQMTQSPSYLSASVGDRVTIACRASQGIRNNLGWYQQKPGKAPKLLIYAESSLQSGVPSRFSGSGSGTDFTLTISSLQPEDFATYYCLQDFNYPYTFGQGTKLEIK	
	3.63 nM		3.07 nM	2.82 nM				3.12 nM			anti-CD30L Reference 1 antibody (antibody, human IgG1, lambda, V domains shown) VH: QVQLQESGPGLVKPSETLSLTCTVSGGSISSYIWSWIRQPAGKGLEWIGRIYASGNTNYNPSLKSRVTISVDTSKNQFSLKLSSMTAADTAVYYCARDYRVAGTYYYYYGLDVWGQGTTVTVSS VL: QSALTQPASVSGSPGQSITISCTGTSSDVGVYDYVSWYQQHPGKAPKLMIYEVSNRPSGVSNRFSGSKSGNTASLTISGLQTEDEADYYCSSYTSRSTWVFGGGTKLTVLG	Inhibition of IL-8 release in a dual cell assay (HEK293-cyCD30L cells + K299 cells) IC50 [22]: 0.68 nM; Inhibition of IL-8 release in a dual cell assay (B16-huCD30L cells + K299 cells) IC50 [23]: 1.74 nM; IC50 [24]: 2.77 nM; EC50 [25]: 1.74 nM
